Laboratory results from US20230270892A1, “CHELATOR COMPOSITIONS FOR RADIOMETALS AND METHODS OF USING SAME” (TRIUMF INC., priority 2020, published 2023).

Experiments:
[1] = test system: mice bearing B16F10 tumors; assay: in vivo; details: mouse
Procedure: (§1) At the day of biodistribution mice were injected in the tail vein with ~20 kBq of ^225Accrown-αMSH (range: 10.8-31.6 kBq). […] Blood was collected by cardiac puncture and a full biodistribution performed. Organs were cleaned from blood, weighed and the activity determined using a calibrated gamma counter (Packard Cobra II Auto-gamma counter, Perkin Elmer, Waltham, MA, USA) using three energy windows: 60-120 keV (window A), 180-260 keV (window B), and 400-480 keV (window C). Counting was performed after 6 hours post-sacrifice to ensure equilibrium of the ^225Ac decay chain. Counts were decay corrected from the time of sacrifice and total organ weights were used for the calculation of injected dose per gram of tissue (% ID/g). No differences were noted between the data calculated by three different windows; therefore, the biodistributions are reported using the data acquired using window A. A similar study to Example 5.1 was conducted using ^213Bi instead of ^225Ac.

in vivo [2] = assay: in vivo; parameters: species or system mice; details: mouse, iv, total radioactivity
Procedure: as §1

in vivo [3] = assay: in vivo; parameters: species or system mice; details: mouse, iv, total radioactivity; remark: listed apart in the source
Procedure: as §1, with “A. The biological distribution of ^225Ac-crown-TATE was examined by the inventors following” for “A. A”, “similar protocols as described above for” for “similar study to”, “Example 5.1.” for “Example 5.1 was conducted using ^213Bi instead of ^225Ac.”

SMILES: CCCC[C@H](NC(=O)CN1CCC(NC(=O)CN2CCOCCN(CC(=O)O)CCN(CC(=O)O)CCOCCN(CC(=O)O)CC2)CC1)C(=O)N[C@H]1CC(=O)NCCCC[C@@H](C(N)=O)NC(=O)[C@H](Cc2c[nH]c3ccccc23)NC(=O)[C@H](CCCNC(=N)N)NC(=O)[C@@H](Cc2ccccc2)NC(=O)[C@H](Cc2c[nH]cn2)NC1=O [^213Bi-crown-αMSH, metal not drawn]
- T/Blood (ratio tumor versus blood) [1]: 12.15
- T/Bone (ratio tumor versus bone) [1]: 23.41
- T/Kidney (ratio tumor versus kidney) [1]: 0.99
- T/Liver (ratio tumor versus liver) [1]: 5.44
- T/Muscle (ratio tumor versus muscle) [1]: 84.48
- tissue uptake at 1 h (in vivo [2]; Biodistribution: Bladder): 5.48 %ID/g
- tissue uptake at 1 h (in vivo [2]; Biodistribution: Blood): 0.5 %ID/g
- tissue uptake at 1 h (in vivo [2]; Biodistribution: Bone): 0.41 %ID/g
- excreta dose per gram or mL at 1 h (in vivo [2]; Biodistribution: Feces): 0.23 %ID/g
- tissue uptake at 1 h (in vivo [2]; Biodistribution: Heart): 0.09 %ID/g
- tissue uptake at 1 h (in vivo [2]; Biodistribution: Kidneys): 6.02 %ID/g
- tissue uptake at 1 h (in vivo [2]; Biodistribution: Lg Intestine): 0.56 %ID/g
- tissue uptake at 1 h (in vivo [2]; Biodistribution: Liver): 1.09 %ID/g
- tissue uptake at 1 h (in vivo [2]; Biodistribution: Lungs): 0.45 %ID/g
- tissue uptake at 1 h (in vivo [2]; Biodistribution: Muscle): 0.08 %ID/g
- tissue uptake at 1 h (in vivo [2]; Biodistribution: Pancreas): 0.15 %ID/g
- tissue uptake at 1 h (in vivo [2]; Biodistribution: Sm Intestine): 0.34 %ID/g
- tissue uptake at 1 h (in vivo [2]; Biodistribution: Spleen): 0.36 %ID/g
- tissue uptake at 1 h (in vivo [2]; Biodistribution: Stomach): 0.67 %ID/g
- tissue uptake at 1 h (in vivo [2]; Biodistribution: Tail): 2.56 %ID/g
- tissue uptake at 1 h (in vivo [2]; Biodistribution: Thyroids): 0.74 %ID/g
- tissue uptake at 1 h (in vivo [2]; Biodistribution: Tumour): 5.9 %ID/g
- excreta dose per gram or mL at 1 h (in vivo [2]; Biodistribution: Urine): 93.2 %ID/g

SMILES: C[C@@H](O)[C@H](NC(=O)[C@@H]1CSSC[C@H](NC(=O)[C@@H](Cc2ccccc2)NC(=O)CN2CCOCCN(CC(=O)O)CCN(CC(=O)O)CCOCCN(CC(=O)O)CC2)C(=O)N[C@@H](Cc2ccc(O)cc2)C(=O)N[C@H](Cc2c[nH]c3ccccc23)C(=O)N[C@@H](CCCCN)C(=O)N[C@@H]([C@@H](C)O)C(=O)N1)C(=O)O [^225Ac-crown-TATE, metal not drawn]
- tissue uptake at 1 h (in vivo [3]; Biodistribution: Andrenals): 1.34 %ID/g
- tissue uptake at 4 h (in vivo [3]; Biodistribution: Andrenals): 1.37 %ID/g
- tissue uptake at 24 h (in vivo [3]; Biodistribution: Andrenals): 1.77 %ID/g
- tissue uptake at 72 h (in vivo [3]; Biodistribution: Andrenals): 1.37 %ID/g
- tissue uptake at 1 h (in vivo [3]; Biodistribution: Bladder): 7.09 %ID/g
- tissue uptake at 4 h (in vivo [3]; Biodistribution: Bladder): 1.04 %ID/g
- tissue uptake at 24 h (in vivo [3]; Biodistribution: Bladder): 0.33 %ID/g
- tissue uptake at 72 h (in vivo [3]; Biodistribution: Bladder): 0.37 %ID/g
- tissue uptake at 1 h (in vivo [3]; Biodistribution: Blood): 0.54 %ID/g
- tissue uptake at 4 h (in vivo [3]; Biodistribution: Blood): 0.09 %ID/g
- tissue uptake at 24 h (in vivo [3]; Biodistribution: Blood): 0.03 %ID/g
- tissue uptake at 72 h (in vivo [3]; Biodistribution: Blood): 0.02 %ID/g
- tissue uptake at 1 h (in vivo [3]; Biodistribution: Bone): 0.35 %ID/g
- tissue uptake at 4 h (in vivo [3]; Biodistribution: Bone): 0.78 %ID/g
- tissue uptake at 24 h (in vivo [3]; Biodistribution: Bone): 0.38 %ID/g
- tissue uptake at 72 h (in vivo [3]; Biodistribution: Bone): 0.78 %ID/g
- tissue uptake at 1 h (in vivo [3]; Biodistribution: Brain): 0.03 %ID/g
- tissue uptake at 4 h (in vivo [3]; Biodistribution: Brain): 0.01 %ID/g
- tissue uptake at 24 h (in vivo [3]; Biodistribution: Brain): 0.01 %ID/g
- tissue uptake at 72 h (in vivo [3]; Biodistribution: Brain): 0.01 %ID/g
- excreta dose per gram or mL at 1 h (in vivo [3]; Biodistribution: Feces): 0.22 %ID/g
- excreta dose per gram or mL at 4 h (in vivo [3]; Biodistribution: Feces): 0.27 %ID/g
- excreta dose per gram or mL at 24 h (in vivo [3]; Biodistribution: Feces): 0.53 %ID/g
- excreta dose per gram or mL at 72 h (in vivo [3]; Biodistribution: Feces): 0.26 %ID/g
- tissue uptake at 1 h (in vivo [3]; Biodistribution: Gallbladder): 0.68 %ID/g
- tissue uptake at 4 h (in vivo [3]; Biodistribution: Gallbladder): 0.52 %ID/g
- tissue uptake at 24 h (in vivo [3]; Biodistribution: Gallbladder): 0.99 %ID/g
- tissue uptake at 72 h (in vivo [3]; Biodistribution: Gallbladder): 1.25 %ID/g
- tissue uptake at 1 h (in vivo [3]; Biodistribution: Heart): 0.32 %ID/g
- tissue uptake at 4 h (in vivo [3]; Biodistribution: Heart): 0.15 %ID/g
- tissue uptake at 24 h (in vivo [3]; Biodistribution: Heart): 0.18 %ID/g
- tissue uptake at 72 h (in vivo [3]; Biodistribution: Heart): 0.19 %ID/g
- tissue uptake at 1 h (in vivo [3]; Biodistribution: Kidneys): 20 %ID/g
- tissue uptake at 4 h (in vivo [3]; Biodistribution: Kidneys): 20.7 %ID/g
- tissue uptake at 24 h (in vivo [3]; Biodistribution: Kidneys): 11.5 %ID/g
- tissue uptake at 72 h (in vivo [3]; Biodistribution: Kidneys): 7.09 %ID/g
- tissue uptake at 1 h (in vivo [3]; Biodistribution: Lg Intestine): 1.55 %ID/g
- tissue uptake at 4 h (in vivo [3]; Biodistribution: Lg Intestine): 1.58 %ID/g
- tissue uptake at 24 h (in vivo [3]; Biodistribution: Lg Intestine): 1.31 %ID/g
- tissue uptake at 72 h (in vivo [3]; Biodistribution: Lg Intestine): 1.02 %ID/g
- tissue uptake at 1 h (in vivo [3]; Biodistribution: Liver): 1.38 %ID/g
- tissue uptake at 4 h (in vivo [3]; Biodistribution: Liver): 1 %ID/g
- tissue uptake at 24 h (in vivo [3]; Biodistribution: Liver): 1.77 %ID/g
- tissue uptake at 72 h (in vivo [3]; Biodistribution: Liver): 2.43 %ID/g
- tissue uptake at 1 h (in vivo [3]; Biodistribution: Lungs): 3.4 %ID/g
- tissue uptake at 4 h (in vivo [3]; Biodistribution: Lungs): 3.37 %ID/g
- tissue uptake at 24 h (in vivo [3]; Biodistribution: Lungs): 2.31 %ID/g
- tissue uptake at 72 h (in vivo [3]; Biodistribution: Lungs): 2 %ID/g
- tissue uptake at 1 h (in vivo [3]; Biodistribution: Muscle): 0.1 %ID/g
- tissue uptake at 4 h (in vivo [3]; Biodistribution: Muscle): 0.02 %ID/g
- tissue uptake at 24 h (in vivo [3]; Biodistribution: Muscle): 0.02 %ID/g
- tissue uptake at 72 h (in vivo [3]; Biodistribution: Muscle): 0.04 %ID/g
- tissue uptake at 1 h (in vivo [3]; Biodistribution: Pancreas): 4.39 %ID/g
- tissue uptake at 4 h (in vivo [3]; Biodistribution: Pancreas): 3.24 %ID/g
- tissue uptake at 24 h (in vivo [3]; Biodistribution: Pancreas): 1.22 %ID/g
- tissue uptake at 72 h (in vivo [3]; Biodistribution: Pancreas): 1.07 %ID/g
- tissue uptake at 1 h (in vivo [3]; Biodistribution: Sm Intestine): 0.88 %ID/g
- tissue uptake at 4 h (in vivo [3]; Biodistribution: Sm Intestine): 0.74 %ID/g
- tissue uptake at 24 h (in vivo [3]; Biodistribution: Sm Intestine): 0.51 %ID/g
- tissue uptake at 72 h (in vivo [3]; Biodistribution: Sm Intestine): 0.49 %ID/g
- tissue uptake at 1 h (in vivo [3]; Biodistribution: Spleen): 0.48 %ID/g
- tissue uptake at 4 h (in vivo [3]; Biodistribution: Spleen): 0.36 %ID/g
- tissue uptake at 24 h (in vivo [3]; Biodistribution: Spleen): 0.23 %ID/g
- tissue uptake at 72 h (in vivo [3]; Biodistribution: Spleen): 0.35 %ID/g
- tissue uptake at 1 h (in vivo [3]; Biodistribution: Stomach): 5.04 %ID/g
- tissue uptake at 4 h (in vivo [3]; Biodistribution: Stomach): 3.7 %ID/g
- tissue uptake at 24 h (in vivo [3]; Biodistribution: Stomach): 2.75 %ID/g
- tissue uptake at 72 h (in vivo [3]; Biodistribution: Stomach): 2.25 %ID/g
- tissue uptake at 1 h (in vivo [3]; Biodistribution: Tail): 1.56 %ID/g
- tissue uptake at 4 h (in vivo [3]; Biodistribution: Tail): 0.42 %ID/g
- tissue uptake at 24 h (in vivo [3]; Biodistribution: Tail): 0.35 %ID/g
- tissue uptake at 72 h (in vivo [3]; Biodistribution: Tail): 0.34 %ID/g
- tissue uptake at 1 h (in vivo [3]; Biodistribution: Tumour): 5.86 %ID/g
- tissue uptake at 4 h (in vivo [3]; Biodistribution: Tumour): 5.15 %ID/g
- tissue uptake at 24 h (in vivo [3]; Biodistribution: Tumour): 5.7 %ID/g
- tissue uptake at 72 h (in vivo [3]; Biodistribution: Tumour): 4.97 %ID/g
- excreta dose per gram or mL at 1 h (in vivo [3]; Biodistribution: Urine): 108 %ID/g
- excreta dose per gram or mL at 4 h (in vivo [3]; Biodistribution: Urine): 13.2 %ID/g
- excreta dose per gram or mL at 24 h (in vivo [3]; Biodistribution: Urine): 0.87 %ID/g
- excreta dose per gram or mL at 72 h (in vivo [3]; Biodistribution: Urine): 0.2 %ID/g
